IntAct's records for PubMed 17113272

B1: Armadillo segment polarity protein (Drosophila melanogaster (Fruit fly)), P18824 (parent)
chain: MSYMPAQNRTMSHNNQYNPPDLPPMVSAKEQTLMWQQNSYLGDSGIHSGAVTQVPSLSGKEDEEMEGDPLMFDLDTGFPQNFTQDQVDDMNQQLSQTRSQRVRAAMFPETLEEGIEIPSTQFDPQQPTAVQRLSEPSQMLKHAVVNLINYQDDAELATRAIPELIKLLNDEDQVVVSQAAMMVHQLSKKEASRHAIMNSPQMVAALVRAISNSNDLESTKAAVGTLHNLSHHRQGLLAIFKSGGIPALVKLLSSPVESVLFYAITTLHNLLLHQDGSKMAVRLAGGLQKMVTLLQRNNVKFLAIVTDCLQILAYGNQESKLIILASGGPNELVRIMRSYDYEKLLWTTSRVLKVLSVCSSNKPAIVDAGGMQALAMHLGNMSPRLVQNCLWTLRNLSDAATKVEGLEALLQSLVQVLGSTDVNVVTCAAGILSNLTCNNQRNKATVCQVGGVDALVRTIINAGDREEITEPAVCALRHLTSRHVDSELAQNAVRLNYGLSVIVKLLHPPSRWPLIKAVIGLIRNLALCPANHAPLREHGAIHHLVRLLMRAFQDTERQRSSIATTGSQQPSAYADGVRMEEIVEGTVGALHILARESHNRALIRQQSVIPIFVRLLFNEIENIQRVAAGVLCELAADKEGAEIIEQEGATGPLTDLLHSRNEGVATYAAAVLFRMSEDKPQDYKKRLSIELTNSLLREDNNIWANADLGMGPDLQDMLGPEEAYEGLYGQGPPSVHSSHGGRAFHQQGYDTLPIDSMQGLEISSPVGGGGAGGAPGNGGAVGGASGGGGNIGAIPPSGAPTSPYSMDMDVGEIDAGALNFDLDAMPTPPNDNNNLAAWYDTDC
partner: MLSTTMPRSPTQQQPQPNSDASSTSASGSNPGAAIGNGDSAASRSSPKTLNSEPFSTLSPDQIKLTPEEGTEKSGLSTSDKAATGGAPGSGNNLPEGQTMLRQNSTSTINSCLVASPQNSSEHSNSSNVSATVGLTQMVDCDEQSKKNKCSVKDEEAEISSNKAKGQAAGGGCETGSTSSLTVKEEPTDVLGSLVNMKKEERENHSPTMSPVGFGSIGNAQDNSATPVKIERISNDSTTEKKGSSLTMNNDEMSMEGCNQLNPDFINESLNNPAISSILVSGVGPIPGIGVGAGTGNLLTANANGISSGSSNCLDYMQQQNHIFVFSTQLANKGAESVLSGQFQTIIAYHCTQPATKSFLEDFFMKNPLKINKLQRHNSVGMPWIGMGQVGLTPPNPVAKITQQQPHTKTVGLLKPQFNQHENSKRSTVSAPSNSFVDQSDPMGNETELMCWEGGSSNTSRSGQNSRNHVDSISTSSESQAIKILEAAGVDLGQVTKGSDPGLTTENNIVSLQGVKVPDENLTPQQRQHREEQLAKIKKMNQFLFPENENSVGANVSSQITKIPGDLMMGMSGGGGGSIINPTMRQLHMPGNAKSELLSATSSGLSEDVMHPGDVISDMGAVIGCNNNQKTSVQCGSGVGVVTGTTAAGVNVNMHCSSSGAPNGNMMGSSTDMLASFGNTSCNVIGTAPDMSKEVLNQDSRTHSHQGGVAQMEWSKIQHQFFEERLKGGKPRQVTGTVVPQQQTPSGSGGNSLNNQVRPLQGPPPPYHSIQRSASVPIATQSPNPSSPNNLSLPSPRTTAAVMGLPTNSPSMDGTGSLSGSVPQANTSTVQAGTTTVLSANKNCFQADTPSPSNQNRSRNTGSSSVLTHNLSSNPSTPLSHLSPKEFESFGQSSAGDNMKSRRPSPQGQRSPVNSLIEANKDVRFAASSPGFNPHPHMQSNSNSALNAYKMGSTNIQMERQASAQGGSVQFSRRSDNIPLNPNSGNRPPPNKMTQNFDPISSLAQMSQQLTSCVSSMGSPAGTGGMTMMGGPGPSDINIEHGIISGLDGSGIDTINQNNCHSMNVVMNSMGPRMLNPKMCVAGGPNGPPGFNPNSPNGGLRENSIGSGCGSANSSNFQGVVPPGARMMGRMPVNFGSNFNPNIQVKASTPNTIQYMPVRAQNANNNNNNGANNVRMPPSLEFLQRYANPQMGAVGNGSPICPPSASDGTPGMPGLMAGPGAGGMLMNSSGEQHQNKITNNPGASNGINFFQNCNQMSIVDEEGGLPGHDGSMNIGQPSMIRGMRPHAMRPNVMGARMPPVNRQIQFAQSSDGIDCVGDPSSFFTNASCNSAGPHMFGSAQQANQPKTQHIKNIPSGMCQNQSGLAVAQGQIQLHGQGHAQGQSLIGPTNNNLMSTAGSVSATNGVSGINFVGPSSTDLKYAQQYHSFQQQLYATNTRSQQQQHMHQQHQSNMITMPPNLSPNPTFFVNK
B2: Catenin beta-1 (Mus musculus), Q02248 (parent)
chain: MATQADLMELDMAMEPDRKAAVSHWQQQSYLDSGIHSGATTTAPSLSGKGNPEEEDVDTSQVLYEWEQGFSQSFTQEQVADIDGQYAMTRAQRVRAAMFPETLDEGMQIPSTQFDAAHPTNVQRLAEPSQMLKHAVVNLINYQDDAELATRAIPELTKLLNDEDQVVVNKAAVMVHQLSKKEASRHAIMRSPQMVSAIVRTMQNTNDVETARCTAGTLHNLSHHREGLLAIFKSGGIPALVKMLGSPVDSVLFYAITTLHNLLLHQEGAKMAVRLAGGLQKMVALLNKTNVKFLAITTDCLQILAYGNQESKLIILASGGPQALVNIMRTYTYEKLLWTTSRVLKVLSVCSSNKPAIVEAGGMQALGLHLTDPSQRLVQNCLWTLRNLSDAATKQEGMEGLLGTLVQLLGSDDINVVTCAAGILSNLTCNNYKNKMMVCQVGGIEALVRTVLRAGDREDITEPAICALRHLTSRHQEAEMAQNAVRLHYGLPVVVKLLHPPSHWPLIKATVGLIRNLALCPANHAPLREQGAIPRLVQLLVRAHQDTQRRTSMGGTQQQFVEGVRMEEIVEGCTGALHILARDVHNRIVIRGLNTIPLFVQLLYSPIENIQRVAAGVLCELAQDKEAAEAIEAEGATAPLTELLHSRNEGVATYAAAVLFRMSEDKPQDYKKRLSVELTSSLFRTEPMAWNETADLGLDIGAQGEALGYRQDDPSYRSFHSGGYGQDALGMDPMMEHEMGGHHPGADYPVDGLPDLGHAQDLMDGLPPGDSNQLAWFDTDL
partner: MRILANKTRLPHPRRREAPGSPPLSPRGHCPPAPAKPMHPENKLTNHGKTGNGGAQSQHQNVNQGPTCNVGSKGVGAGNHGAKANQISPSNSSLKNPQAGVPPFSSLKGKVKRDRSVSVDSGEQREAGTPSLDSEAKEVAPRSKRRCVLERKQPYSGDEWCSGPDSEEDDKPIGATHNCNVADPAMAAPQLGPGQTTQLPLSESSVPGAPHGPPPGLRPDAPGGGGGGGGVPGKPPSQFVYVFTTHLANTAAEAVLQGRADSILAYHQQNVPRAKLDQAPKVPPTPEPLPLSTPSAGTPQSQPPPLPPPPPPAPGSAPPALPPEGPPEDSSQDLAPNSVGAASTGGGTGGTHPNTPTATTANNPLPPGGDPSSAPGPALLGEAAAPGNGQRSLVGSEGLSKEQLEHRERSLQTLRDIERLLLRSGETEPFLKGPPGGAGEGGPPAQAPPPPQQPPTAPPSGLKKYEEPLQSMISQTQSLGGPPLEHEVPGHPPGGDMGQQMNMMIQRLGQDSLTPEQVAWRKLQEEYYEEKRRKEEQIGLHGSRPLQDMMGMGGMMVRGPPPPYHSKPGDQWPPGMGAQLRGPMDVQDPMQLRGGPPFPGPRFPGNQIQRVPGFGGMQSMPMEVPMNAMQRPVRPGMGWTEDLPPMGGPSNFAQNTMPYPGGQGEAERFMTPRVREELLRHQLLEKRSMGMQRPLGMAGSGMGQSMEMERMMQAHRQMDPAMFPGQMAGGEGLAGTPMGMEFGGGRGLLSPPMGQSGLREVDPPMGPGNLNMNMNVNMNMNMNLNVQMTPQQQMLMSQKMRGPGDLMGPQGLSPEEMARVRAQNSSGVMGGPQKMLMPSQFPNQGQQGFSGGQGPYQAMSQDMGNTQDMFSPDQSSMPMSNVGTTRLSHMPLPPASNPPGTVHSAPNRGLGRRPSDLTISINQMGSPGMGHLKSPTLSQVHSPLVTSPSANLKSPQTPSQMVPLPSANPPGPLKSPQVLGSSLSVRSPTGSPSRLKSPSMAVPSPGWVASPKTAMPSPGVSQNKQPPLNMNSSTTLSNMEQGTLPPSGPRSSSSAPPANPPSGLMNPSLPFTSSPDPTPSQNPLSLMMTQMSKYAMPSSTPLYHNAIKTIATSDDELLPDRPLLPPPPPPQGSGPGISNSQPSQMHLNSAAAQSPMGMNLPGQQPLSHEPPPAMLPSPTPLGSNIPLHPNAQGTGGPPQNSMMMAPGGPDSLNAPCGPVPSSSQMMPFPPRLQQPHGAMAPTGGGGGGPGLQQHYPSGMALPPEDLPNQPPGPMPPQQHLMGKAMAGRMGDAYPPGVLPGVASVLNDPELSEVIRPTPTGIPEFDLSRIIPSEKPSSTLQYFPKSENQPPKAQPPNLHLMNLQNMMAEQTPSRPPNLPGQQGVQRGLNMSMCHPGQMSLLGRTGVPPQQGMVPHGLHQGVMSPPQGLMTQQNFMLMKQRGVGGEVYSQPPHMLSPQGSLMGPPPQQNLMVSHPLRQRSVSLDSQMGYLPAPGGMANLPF
B3: Armadillo segment polarity protein (Drosophila melanogaster (Fruit fly)), P18824 (parent)
chain: B1 chain
partner: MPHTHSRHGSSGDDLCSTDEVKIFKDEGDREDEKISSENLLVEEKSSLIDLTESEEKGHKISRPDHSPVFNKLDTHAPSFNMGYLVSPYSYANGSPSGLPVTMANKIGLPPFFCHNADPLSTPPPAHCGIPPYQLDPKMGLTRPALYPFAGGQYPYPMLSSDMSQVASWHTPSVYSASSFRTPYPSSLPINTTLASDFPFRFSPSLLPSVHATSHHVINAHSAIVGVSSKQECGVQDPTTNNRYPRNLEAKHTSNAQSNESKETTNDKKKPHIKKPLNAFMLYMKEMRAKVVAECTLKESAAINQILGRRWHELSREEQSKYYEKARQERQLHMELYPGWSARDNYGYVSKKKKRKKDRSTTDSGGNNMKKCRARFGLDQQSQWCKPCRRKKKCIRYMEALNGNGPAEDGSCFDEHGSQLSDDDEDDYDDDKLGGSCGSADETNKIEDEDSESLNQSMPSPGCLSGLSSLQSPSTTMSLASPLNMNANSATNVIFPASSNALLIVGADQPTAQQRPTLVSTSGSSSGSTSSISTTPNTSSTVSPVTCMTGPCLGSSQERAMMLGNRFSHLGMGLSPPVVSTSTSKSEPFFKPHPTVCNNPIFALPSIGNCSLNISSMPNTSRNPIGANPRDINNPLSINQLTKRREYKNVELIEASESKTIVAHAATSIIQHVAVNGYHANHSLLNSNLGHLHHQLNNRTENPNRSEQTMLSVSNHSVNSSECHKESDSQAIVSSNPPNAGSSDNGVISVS

Variants of: B1
Details: with bcl9_drome lgs

Variant | effect of a mutation on the interaction
D172A | disrupting interaction

Variants of: B2
Details: with bcl9l_human BCL9L

Variant | effect of a mutation on the interaction
D164A | disrupting interaction

Variants of: B3
Details: with pang1_drome pan

Variant | effect of a mutation on the interaction
D172A | disrupting interaction
